Data taken from article PMC5146998.

Target: CTF2 mutant MUT9 (3xFLAG-tagged) (chicken) (UniProt Q90762)
Experiment: co-IP

UniProt Q90762, sequence (Q90762 637-790, change not shown): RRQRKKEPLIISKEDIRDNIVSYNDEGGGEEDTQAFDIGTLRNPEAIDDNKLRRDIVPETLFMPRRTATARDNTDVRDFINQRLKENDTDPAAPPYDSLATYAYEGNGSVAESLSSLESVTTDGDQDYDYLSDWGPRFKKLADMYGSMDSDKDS

- percent inhibition of β-catenin co-immunoprecipitation against wild-type CTF2: 87.5%
Substance: β-catenin (endogenous, LMH cells) (natural protein)
